Test results as given in publication PMC7952577, “Overcoming the design, build, test bottleneck for synthesis of nonrepetitive protein-RNA cassettes”.

Columns and labels:
Assay in all cases: iSort-seq, translational repression in E. coli Top10, 37 C
Details in all cases: tags: C-GFP (kept); chain copies: 2
[1] = target: MS2 coat protein V29I dlFG (Escherichia phage MS2 (Bacteriophage …, UniProt P03612, V30I;del68-81insG))
PP7 coat protein dlFG = PP7 coat protein dlFG (Pseudomonas phage PP7 (Bacteriophage …, UniProt P03630, ins1-2LA;del68-75insSG))
[2] = target: T1, Qbeta coat protein (strain MX1) (Qbeta virus (strain MX1), UniProt Q9T0R9)
T1 sequence: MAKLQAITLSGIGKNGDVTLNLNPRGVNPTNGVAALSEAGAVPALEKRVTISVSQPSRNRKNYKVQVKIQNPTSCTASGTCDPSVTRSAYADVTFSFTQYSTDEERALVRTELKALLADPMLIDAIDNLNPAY

B1: ms2_wt_1_d1 (ssRNA)
RNA: UUAAUUAAAGAGGAGAAAGGUACCCAUGCACAUGAGGAUUACCCAUGUUGUGAGCAAGGGCGAGGAGGAUAACAUGGCCAUCAUCAAGGAGUUCAUGCGCUUCAAGGUGCACAUGGAGGG
In the case of B1, the binding signal [1] is reported as 21.6 Rscore (log-likelihood ratio).

B2: pp7_wt_5_d1 (ssRNA)
RNA: UUAAUUAAAGAGGAGAAAGGUACCCAUGCUAAGGAGUUUAUAUGGAAACCCUUAUGUGAGCAAGGGCGAGGAGGAUAACAUGGCCAUCAUCAAGGAGUUCAUGCGCUUCAAGGUGCACAUGGAGGG
B2 was tested, and the binding signal (PP7 coat protein dlFG) was 6.62 Rscore (log-likelihood ratio).

B3: qb_NOTpre_changeBulge_0004_d2 (ssRNA)
RNA: UUAAUUAAAGAGGAGAAAGGUACCCAUGGCAUGCAUGUCUAAGACAGCAUCUGUGAGCAAGGGCGAGGAGGAUAACAUGGCCAUCAUCAAGGAGUUCAUGCGCUUCAAGGUGCACAUGGAGGG
For B3, the binding signal [2] was 9.05 Rscore (log-likelihood ratio).
